The assay addresses horseradish peroxidase (HRP) (horseradish) (UniProt P00433). In words: affinity precipitation at varied ligand to HRP ratio; peroxidase activity assay.

Values joined by “and” are separate entries in the source; they are usually repeats but may differ in a detail not shown here. Identical values can stand only once.

Chain of UniProt P00433 (P00433 31-338): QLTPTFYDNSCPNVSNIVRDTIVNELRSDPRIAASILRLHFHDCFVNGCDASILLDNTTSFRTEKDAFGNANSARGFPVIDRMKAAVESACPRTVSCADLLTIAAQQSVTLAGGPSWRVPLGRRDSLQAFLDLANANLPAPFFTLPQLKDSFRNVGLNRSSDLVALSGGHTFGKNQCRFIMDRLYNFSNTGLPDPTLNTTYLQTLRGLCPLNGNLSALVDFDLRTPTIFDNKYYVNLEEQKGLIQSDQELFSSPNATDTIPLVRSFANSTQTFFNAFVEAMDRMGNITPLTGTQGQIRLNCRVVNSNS

Take “RSL-ELP40 (fucose lectin from Ralstonia solanacearum fused by a 10 amino acid glycine rich linker to (designed binder)”: the molar excess of ligand at which full recovery was approached (mol ligand per mol HRP) is 15 and 20.

These data come from patent US20150307546A1.
